Data reported in patent publication US20240425589A1, “CYTOTOXICITY-INDUCING THERAPEUTIC AGENT FOR USE IN TREATMENT OF CANCER” (CHUGAI SEIYAKU KABUSHIKI KAISHA, priority 2021, published 2024).

Experiments:
cyno CLDN6 VLP = assay: Biacore T200 SPR affinity to cyno CLDN6 VLP; assay type: binding, cynomolgus; details: cyno CLDN6, 25 degree C, pH 7.4
Experimental: The binding affinity of the anti-CLDN6/Dual-Fab tri-specific antibody against human and cynomolgus (cyno) CLDN6 VLP (virus-like particle) at pH 7.4 was determined at 25 degree C. using Biacore T200 instrument (GE Healthcare). Anti-human CD81 (BD Pharmingen) antibody was immobilized onto all flow cells of a C1 sensor chip using amine coupling kit (GE Healthcare). Human and cyno CLDN6 VLP were captured onto the sensor surface by the anti-human CD81 antibody. Each VLP was 5-fold dilution by buffer (20 mM NaPhosphate, 150 mM NaCl, 0.1 mg/mL BSA, 0.005% NaN3, pH 7.4). Tested antibody was prepared in buffer (20 mM NaPhosphate, 150 mM NaCl, 0.1 mg/mL BSA, 0.005% NaN3, pH 7.4). Anti-CLDN6/Dual-Fab tri-specific antibody was injected at 50 and 200 nM, followed by dissociation. Sensor surface was regenerated each cycle with 0.1% SDS and 100 mM H3PO4. […] Binding affinities were determined by processing and fitting the data to 1:1 binding model using Biacore T200 Evaluation software, version 2.0 (GE Healthcare).

recombinant human CD137 = biological target: T1, recombinant human CD137 (Homo sapiens, UniProt Q07011); assay: Biacore 8K SPR affinity to human CD137; assay type: binding; details: human CD137, 37 degree C, pH 7.4
T1 construct: made in house; host or cells: FreeStyle293F
Experimental: The binding affinity of the anti-CLDN6/Dual-Fab tri-specific antibody against recombinant human and cyno CD3eg (gamma and epsilon subunits of CD3) at pH 7.4 was determined at 25 degree C. using Biacore 8K instrument (GE Healthcare). The binding affinity of the anti-CLDN6/Dual-Fab tri-specific antibody against recombinant human and cyno CD137 at pH 7.4 was determined at 37 degree C. using Biacore 8K instrument (GE Healthcare). Anti-human Fc (GE Healthcare) antibody was immobilized onto all flow cells of a CM4 sensor chip using amine coupling kit (GE Healthcare). Tested antibody and analytes were prepared in ACES pH 7.4 containing 20 mM ACES, 150 mM NaCl, 0.05% Tween 20, 0.005% NaN3. Anti-CLDN6/Dual-Fab tri-specific antibody was captured onto the sensor surface by anti-human Fc. Antibody capture levels were aimed at 300 resonance unit (RU). Recombinant CD3eg and CD137 were injected at both 500 and 2000 nM, followed by dissociation. Sensor surface was regenerated each cycle with 3M MgCl2. […] Binding affinities were determined by processing and fitting the data to 1:1 binding model using Biacore Insight Evaluation software (GE Healthcare).

[1] = Single dose toxicology study; assay type: in vivo, cynomolgus monkey
Experimental: Potential toxicity of PPU4135 antibody (anti-CLDN6/Dual-Fab tri-specific antibody) was evaluated in toxicity study using cynomolgus monkeys compared with CS3348 antibody (anti-CLDN6/CD3 bispecific antibody). Because both PPU4135 and CS3348 antibodies cross-reacted with their antigens of cynomolgus monkey, cynomolgus monkey was selected as the animal species for evaluations in the in vivo toxicology studies. Since toxicological findings seemed to be more sensitive in male than female animals in the toxicity study with CS3348 (FIG. 14), 2 males were used for evaluation of the PPU4135-mediated toxicity. In these studies, dose levels were set at 100 (for CS3348) or 90 (for PPU4135) micro g/kg, which were approximately 2.57-fold efficacious concentration producing 80% of the maximal response.

[2] = system: GloResponse NFAT-luc2 Jurkat cells with OVCAR3 and H1435 cells; assay: NFAT-luc2 Jurkat luciferase assay with chemotherapeutic-treated cancer cells; assay type: cell-based, human; details: cells treated with cisplatin or carboplatin for 5 days vs untreated
Experimental: Next, measurement was carried out based on a luciferase assay system using GloResponse NFAT-luc2 Jurkat cells (Promega, J1601) to see if T-cell-activation ability of CS4135 antibody via CD3 binding will change depending on the presence or absence of treatment by a chemotherapeutic agent.
The assay was performed as follows. First, as described above, OVCAR3 and H1435 cells treated with a chemotherapeutic agent for 5 days were detached from a culture flask and plated at 25 μL/well (2×10^4 cells) onto a white flat-bottom 96-well plate (Coster #3917). Next, 1×10^5 Jurkat/NFAT-RE reporter cell line together with the CS4135 antibody at a concentration selected from 0.003, 0.03, 0.3, 3, or 30 nM were added at 25 μL/well. After culturing overnight at 37° C., Bio-Glo reagent (Promega #G7941) was added at 75 μL/well followed by further incubation at room temperature for 10 minutes. Then, luminescence arose from activated Jurkat cells was measured using an EnSpire (PerkinElmer Japan) device. The luminescence magnification of each well was calculated by comparing the wells with the antibody to the wells without the antibody.

OV-90 = assay: LDH release cytotoxicity on olaparib-treated OV-90; assay type: cell-based; details: OV-90, olaparib 3 μM three days vs DMSO, human PBMC
Experimental: The effect of the enhanced induction of CLDN6 expression in BRCA1-deficient ovarian cancer cell line UWB1.289, caused by the PARP inhibitor (olaparib), on the cytotoxic activity of anti-CLDN6/Dual-Fab tri-specific antibody CS4135 was assessed.
BRCA1-deficient ovarian cancer cell line UWB1.289 (ATCC) or BRAC1 wildtype ovarian cancer cell line OV-90 (ATCC) which express human CLDN6 were used as target cells.
Each target cell (3×10^5 cells) were seeded at 5 mL into a 25 cm^2-flask. Two flasks were prepared for each target cell. After culturing overnight, olaparib was added at a final concentration of 3 μM to one of the two flasks. DMSO was added to the other flask. After incubating the flasks for three days, the target cells were recovered, and the cytotoxic activity of the CS4135 antibody was evaluated by […] (LDH) release assay using human PBMC as the effector cell.

T1 sequence (Q07011 with tags, fused parts or gaps): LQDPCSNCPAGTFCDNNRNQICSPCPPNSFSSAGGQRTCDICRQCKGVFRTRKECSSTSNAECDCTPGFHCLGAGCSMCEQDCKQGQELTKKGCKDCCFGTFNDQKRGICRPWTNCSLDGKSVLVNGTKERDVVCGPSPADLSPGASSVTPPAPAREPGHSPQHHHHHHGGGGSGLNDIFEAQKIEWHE

B1: PPU4135: anti-CLDN6/Dual-Fab tri-specific antibody, chains SEQ ID NOs 42, 51, 56, 69; CS4135 same antibody (protein)
chain 1: QVQLVESGGGVVQPGGSLRLSCAASGFTFSSYTMSWVRQAPGQGLEWMGTISSGGGRTYYPDSVKGRFTISRDNSKNTLYLQMNSLRDEDTAVYYCARGDYRYDGFAYWGEGTLVTVSSASTKGPSVFPLAPSSKSTSGGTAALGCLVEDYFPEPVTVSWNSGALTSGVHTFPAVLESSGLYSLSSVVTVPSSSLGTQTYICNVNHKPSNTKVDKRVEPKSCDKTHTCPPCPAPEAAGGPSVFLFPPKPKDTLMISRTPEVTCVVVDVSHEDPEVKFNWYVDGVEVHNAKTKPREEQYASTYRVVSVLTVLHQDWLNGKEYKCKVSNKALPAPIEKTISKAKGQPREPQVYTLPPSREEMTKNQVSLTCLVKGFYPSDIAVEWESNGQPENNYKTTPPVLDSDGSFFLYSKLTVDKSRWQQGNVFSCSVMHEALHNHYTQESLSLSP
chain 2: DIQMTQSPSSLSASVGDRVTITCRASYNIDSYLAWYQQKPGKAPELLIYYSTLLVDGVPDRFSGSRSGTDFTLTISSLQPEDFATYYCQHYYSIPYTFGQGTKVEIERTVAAPSVFIFPPSDEQLKSGTAKVVCLLNNFYPREAKVQWKVDNALQSGNSKESVTEQDSKDSTYSLSSTLTLSKADYEKHKVYACEVTHQGLSSPVTKSFNRGEC
chain 3: QVQLVESGGGLVQPGRSLRLSCAASGFKFSNVWFHWVRQAPGKGLEWVAQIKDYYNAYAAYYAPSVKGRFTISRDDSKNSIYLQMNSLKTEDTAVYYCHYVHYASASTLLPAEGVDAWGQGTTVTVSSASTKGPSVFPLAPSSKSTSGGTAALGCLVKDYFPEPVTVSWNSGALTSGVHTFPAVLKSSGLYSLSSVVTVPSSSLGTQTYICNVNHKPSNTKVDKRVEPKSCDKTHTCPPCPAPEAAGGPSVFLFPPKPKDTLMISRTPEVTCVVVDVSHEDPEVKFNWYVDGVEVHNAKTKPREEQYASTYRVVSVLTVLHQDWLNGKEYKCKVSNKALPAPIEKTISKAKGQPREPQVYTLPPSRKEMTKNQVSLTCLVKGFYPSDIAVEWESNGQPENNYKTTPPVLDSDGSFFLYSKLTVDKSRWQQGNVFSCSVMHEALHNHYTQKSLSLSP
chain 4: DIVMTQSPLSLPVTPGEPASISCQPSQEVVHMNRNTYLHWYQQKPGQAPRLLIYKVSNRFPGVPDRFSGSGSGTDFTLKISRVEAEDVGVYYCAQGTSHPFTFGQGTKLEIKRTVAAPSVFIFPPSDEQLKSGTAEVVCLLNNFYPREAKVQWKVDNALQSGNSEESVTEQDSKDSTYSLSSTLTLSKADYEKHKVYACEVTHQGLSSPVTKSFNRGEC
Cyno CLDN6 VLP
  ka: 218000 M⁻¹ s⁻¹
  kd: 0.000821 s⁻¹
Recombinant human CD137
  ka: 12600 M⁻¹ s⁻¹
  kd: 0.000591 s⁻¹
[1]; PPU4135 90 micro g/kg compared with CS3348 100 micro g/kg
  hepatobiliary damage parameters and inflammatory marker elevations: dramatically mitigated
[1]; male animals, after single IV administration
  AST, ALT, GLDH, ALP, TBIL, GGT, TBA and CRP: Increased
[1]; male animals, until Day 8, PPU4135 90 vs CS3348 100 micro g/kg single IV
  plasma exposure levels: comparable
[2]
  T cell activation ability via CD3: enhanced
OV-90
  cytotoxic activity after addition of olaparib: no effect on cytotoxic activity
